Like-named read-outs stand apart in the source and are kept apart here.
Tests used:
[1] = molecular target: FcgRIIIa receptor (CD16a) (human) (UniProt P08637); assay: cell-based or functional assay
[2] = molecular target: C1q complement (rabbit serum as complement source) (rabbit); assay: cell-based or functional assay
[3] = molecular target: FcgRIIIa receptor (CD16a) on human NK cells (human) (UniProt P08637); assay: cell-based or functional assay
[4] = molecular target: FcgRIIIa receptor (CD16a) on human NK cells (human) (UniProt P08637); assay: cell-based or functional assay; remark: listed apart in the source
[5] = molecular target: C1q complement (rabbit serum as complement source) (rabbit); assay: cell-based or functional assay; remark: listed apart in the source
[6] = molecular target: C1q complement (rabbit serum as complement source) (rabbit); assay: cell-based or functional assay; remark: listed apart in the source
[7] = molecular target: CD32b (FcgRIIb receptor) (human) (UniProt P31994); assay: ELISA, purified IgG on coated receptor, ratio against wild-type
CD32b (FcgRIIb receptor) (human), sequence (P31994 46-217): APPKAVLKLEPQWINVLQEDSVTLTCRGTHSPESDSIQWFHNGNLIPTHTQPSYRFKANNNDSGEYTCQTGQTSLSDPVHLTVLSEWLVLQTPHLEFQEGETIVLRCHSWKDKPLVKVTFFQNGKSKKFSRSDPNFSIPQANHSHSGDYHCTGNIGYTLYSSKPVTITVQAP

[8] = molecular target: CD32aH (FcgRIIa receptor, H at position 131) (human) (UniProt P12318); assay: as above
CD32aH (FcgRIIa receptor, H at position 131) (human), sequence (P12318 34-217): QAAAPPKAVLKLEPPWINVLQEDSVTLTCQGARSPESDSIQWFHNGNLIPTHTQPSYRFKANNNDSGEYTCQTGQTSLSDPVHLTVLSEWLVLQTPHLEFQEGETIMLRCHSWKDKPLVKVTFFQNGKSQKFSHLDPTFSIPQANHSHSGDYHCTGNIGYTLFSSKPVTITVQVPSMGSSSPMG

[9] = molecular target: CD32aR (FcgRIIa receptor, R at position 131) (human) (UniProt P12318); assay: as above
CD64 = CD64 (UniProt P12314); assay: as above
CD64, sequence (P12314 16-288 limits assumed): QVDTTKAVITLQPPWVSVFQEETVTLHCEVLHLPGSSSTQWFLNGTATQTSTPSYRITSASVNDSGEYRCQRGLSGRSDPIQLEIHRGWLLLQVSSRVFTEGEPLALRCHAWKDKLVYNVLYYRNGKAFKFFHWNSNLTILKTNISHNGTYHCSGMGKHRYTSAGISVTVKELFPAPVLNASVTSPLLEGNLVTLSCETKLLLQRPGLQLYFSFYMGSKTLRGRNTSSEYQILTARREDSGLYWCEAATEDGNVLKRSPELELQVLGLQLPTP

FcgRIIIa receptor (CD16a) on human NK cells (human), sequence (P08637 17-254): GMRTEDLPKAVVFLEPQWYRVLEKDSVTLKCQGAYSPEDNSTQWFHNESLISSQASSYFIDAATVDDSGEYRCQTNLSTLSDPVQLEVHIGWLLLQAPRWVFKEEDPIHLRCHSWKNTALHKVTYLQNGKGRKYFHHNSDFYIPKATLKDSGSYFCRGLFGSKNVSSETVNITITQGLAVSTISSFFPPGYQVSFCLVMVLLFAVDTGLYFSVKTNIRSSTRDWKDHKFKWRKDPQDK
FcgRIIIa receptor (CD16a) (human), sequence (P08637 17-254): as above

Row | Substance | ADCC EC50: Antibody concentration (ng/ml) giving 50% lysis of an internal control [1] [ng/mL] | ADCC, Ratio [WT]/[antibody] [1] | CDC, Antibody concentration (ng/ml) giving 50% lysis of an internal control [2] [ng/mL] | CDC, Ratio [WT]/[antibody] [2] | ADCC, EC45: Antibody concentration (ng/ml) giving 45% maximum lysis of an internal control [3] [ng/mL] | ADCC, EC50: Antibody concentration (ng/ml) giving 50% maximum lysis of an internal control [3] [ng/mL] | ADCC, Ratio [WT]/[antibody] [3] | ADCC, EC50: Antibody concentration (ng/ml) giving 50% maximum lysis of an internal control [4] [ng/mL] | CDC, Antibody concentration (ng/ml) giving 50% lysis of an internal control [5] [ng/mL] | CDC, Antibody concentration (ng/ml) giving 50% lysis of an internal control [6] [ng/mL] | ADCC, Ratio [WT]/[antibody] [4] | CDC [2] | ADCC [3] | ELISA ratio (purified antibodies) [7] | ELISA ratio (purified antibodies) [8] | ELISA ratio (purified antibodies) [9] | ELISA ratio (purified antibodies) (CD64) | CDC, Ratio [WT]/[antibody] [6] | CDC, Ratio [WT]/[antibody] [5]
1 | IgG-WT (antibody) | 12.3 | 1 | – | – | – | – | – | – | – | – | – | – | – | – | – | – | – | – | –
2 | anti-CD20 IgG1 with wild-type Fc (IgG-WT) (antibody) | – | – | 262 | 1 | 1.6 | 10.5 | 1 | 0.45 | 133 | 237 | – | – | – | – | – | – | – | – | –
3 | anti-CD20 IgG variant A3A-31 (K334R, L410R) (antibody) | – | – | 108 | 2.42 | – | – | – | 1.84 | – | – | 0.24 | – | – | – | – | – | – | – | –
4 | anti-CD20 IgG variant A3A-105 (G316D, K326E) (antibody) | – | – | – | – | – | – | – | 1.37 | – | – | – | – | – | – | – | – | – | – | –
5 | anti-CD20 IgG variant A3A-173 (K248E, K334R, A378V) (antibody) | – | – | 16 | 16.4 | – | – | – | 1.38 | – | – | 0.33 | 29.5 | 0.3 | 1.3 | 0.95 | 1.3 | 1.2 | – | –
6 | anti-CD20 IgG variant J3B-115 (T359A, S383R, V397M) (antibody) | – | – | 145 | – | – | – | – | 0.57 | – | – | – | 3.2 | – | – | – | – | – | – | –
7 | anti-CD20 IgG variant K3B-01 (N315D, N361H, P396L) (antibody) | – | – | – | – | – | 0.69 | 15.2 | – | – | 59.6 | – | 4 | 15.2 | 1 | 5.7 | 1 | 2.3 | 3.97 | –
8 | anti-CD20 IgG variant K3B-90 (V308A, K334R, A378V, K447N) (antibody) | – | – | 23.1 | 11.3 | – | – | – | 0.75 | – | – | 0.6 | 20.4 | 0.6 | 1.1 | 1.2 | 1.2 | 1.5 | – | –
9 | anti-CD20 IgG variant N3A-87 (K290E, K320E, T350A, P396L) (antibody) | – | – | – | – | 1 | – | 1 | – | 106 | – | – | 1.3 | 1 | 9 | 3.92 | 3.7 | 1.5 | – | 1.25
10 | anti-CD20 IgG variant O3A-05 (K290E, T366A, A378V) (antibody) | – | – | – | – | 0.2 | – | 8 | – | 91 | – | – | 1.5 | 8 | 4.5 | 4.02 | 3.3 | 1.2 | – | 1.46
11 | anti-CD20 IgG variant Q3A-39 (N286I, P396L, N421T) (antibody) | – | – | – | – | 0.3 | – | 5.33 | – | 61 | – | – | 2.2 | 5.3 | 3.8 | 4.83 | 2.3 | 1.5 | – | 2.18

— US20180030111A1
